In patent US20210002619:

Columns and labels:
[1] = test system: T1, C-terminal domain of the retinoblastoma protein (Rb (771-928))
T1 sequence: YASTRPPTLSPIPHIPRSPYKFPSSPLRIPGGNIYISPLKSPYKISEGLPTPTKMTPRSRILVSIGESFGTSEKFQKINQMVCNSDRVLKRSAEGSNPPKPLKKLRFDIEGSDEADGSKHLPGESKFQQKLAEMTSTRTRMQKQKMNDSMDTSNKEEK

[2] = test system: Full-length histone H1
[3] = test system: T2, Transactivation domain of FoxM1 (FoxM1 (526-748))
T2 sequence: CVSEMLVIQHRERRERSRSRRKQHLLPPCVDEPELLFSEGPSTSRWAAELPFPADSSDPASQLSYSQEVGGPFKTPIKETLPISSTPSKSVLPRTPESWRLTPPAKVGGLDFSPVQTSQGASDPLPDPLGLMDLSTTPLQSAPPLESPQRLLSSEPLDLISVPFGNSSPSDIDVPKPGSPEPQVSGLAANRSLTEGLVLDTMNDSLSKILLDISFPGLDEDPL

Sequence of Full-length histone H1 (chain, as listed by the source): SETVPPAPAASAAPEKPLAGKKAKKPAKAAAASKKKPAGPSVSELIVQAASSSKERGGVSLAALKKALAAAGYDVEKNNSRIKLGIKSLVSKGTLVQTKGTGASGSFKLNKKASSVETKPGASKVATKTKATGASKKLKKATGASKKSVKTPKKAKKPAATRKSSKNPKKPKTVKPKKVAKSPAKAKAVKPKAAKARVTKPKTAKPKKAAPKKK

Substance | phosphorylation activity (32P-ATP labeling of substrate) [1] | phosphorylation activity (32P-ATP labeling of substrate) [2] | phosphorylation activity (32P-ATP labeling of substrate) [3]
Wild-type p27-Cdk4-CycD1 trimeric complex (vi) with phosphorylated p27 (Cdk4 variant having T172E substitution) | had phosphorylation activity toward all substrates | had phosphorylation activity toward all substrates | had phosphorylation activity toward all substrates
Wild-type p27-Cdk4-CycD1 trimeric complex (v) with phosphorylated p27 (wild-type Cdk4) | had phosphorylation activity toward all substrates | had phosphorylation activity toward all substrates | had phosphorylation activity toward all substrates
